Measured values: the supplement of paper PMC9233669
This sample holds only a part of the variants without activity.

Assays:
biotinyl-Phe-oxazolone = test: self-aminoacylation, catalytic enhancement (BFO) (fold over background); higher = more active; k-Seq, kA / k0A0; sequences stand for … in GGGAAUGGAUCCACAUCUACGAAUUC…UUCACUGCAGACUUGACGAAGCUG
Outline: (§1)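 Working in 50 μL HEPES/NaCl/KCl/MgCl2/CaCl2 buffer with 5% acetonitrile at pH 6.9–7.0, mutagenized RNA pools (0.43 μM; 21-nt variable region) were reacted with 2–1250 μM of each biotinyl-aminoacyl-oxazolone for 90 minutes at room temperature. Streptavidin capture followed, with quantification by triplicate qPCR and Illumina sequencing. Catalytic enhancement is reported as median kA over the uncatalyzed rate, the low-activity peak of a bimodal Gaussian fit to the data.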

biotinyl-Ile-oxazolone = test: self-aminoacylation, catalytic enhancement (BIO) (fold over background); higher = more active; k-Seq, kA / k0A0; sequences stand for … in GGGAAUGGAUCCACAUCUACGAAUUC…UUCACUGCAGACUUGACGAAGCUG
Outline: as §1

biotinyl-Met-oxazolone = test: self-aminoacylation, catalytic enhancement (BMO) (fold over background); higher = more active; k-Seq, kA / k0A0; sequences stand for … in GGGAAUGGAUCCACAUCUACGAAUUC…UUCACUGCAGACUUGACGAAGCUG
Outline: as §1

biotinyl-Val-oxazolone = test: self-aminoacylation, catalytic enhancement (BVO) (fold over background); higher = more active; k-Seq, kA / k0A0; sequences stand for … in GGGAAUGGAUCCACAUCUACGAAUUC…UUCACUGCAGACUUGACGAAGCUG
Outline: as §1

biotinyl-Leu-oxazolone = test: self-aminoacylation, catalytic enhancement (BLO) (fold over background); higher = more active; k-Seq, kA / k0A0; sequences stand for … in GGGAAUGGAUCCACAUCUACGAAUUC…UUCACUGCAGACUUGACGAAGCUG
Outline: as §1

biotinyl-Trp-oxazolone = test: self-aminoacylation, catalytic enhancement (BWO) (fold over background); higher = more active; k-Seq, kA / k0A0; sequences stand for … in GGGAAUGGAUCCACAUCUACGAAUUC…UUCACUGCAGACUUGACGAAGCUG
Outline: as §1

Sequence	self-aminoacylation (biotinyl-Phe-oxazolone)	self-aminoacylation (biotinyl-Ile-oxazolone)	self-aminoacylation (biotinyl-Met-oxazolone)	self-aminoacylation (biotinyl-Val-oxazolone)	self-aminoacylation (biotinyl-Leu-oxazolone)	self-aminoacylation (biotinyl-Trp-oxazolone)
CAACACUUCAAGCAAUCUGUC [Fam1B.1 aminoacylation ribozyme variant]	0.588	0.399	0.396	0.502	0.362	0.398
CAACACUUCAAGCAAUGGGUC [Fam1B.1 aminoacylation ribozyme variant]	0.677	0.858	0.834	0.664	0.882	0.833
CAACACUUCAAGCAAUUGGUC [Fam1B.1 aminoacylation ribozyme variant]	1.42	0.98	0.866	0.904	0.775	0.958
CAACCUCAAACAAUCGGUCUG [Fam1A.1 aminoacylation ribozyme variant]	11.5	1.21	1.37	1.31	1.61	4.78
CAACUUCAAACAAACGGUCUG [Fam1A.1 aminoacylation ribozyme variant]	0.948	1.07	0.945	0.946	0.995	1.04
CAACUUCAAACAAUAGGUCUG [Fam1A.1 aminoacylation ribozyme variant]	1.41	1.03	0.997	0.919	0.884	0.98
CAACUUCAAACAAUCGGACUG [Fam1A.1 aminoacylation ribozyme variant]	19.2	1.26	0.952	0.945	1.41	10.6
CAACUUCAGACAAUCGGUCUG [Fam1A.1 aminoacylation ribozyme variant]	2.46	1.09	0.989	1.09	1.08	1.43
CAACUUCGAACAAUCGGUCUG [Fam1A.1 aminoacylation ribozyme variant]	2.22	1.21	1.1	1.15	0.999	2.15
CAACUUCUAACAAUCGGUCUG [Fam1A.1 aminoacylation ribozyme variant]	1.44	0.904	0.722	0.917	0.743	1.05
CAAGUUCAAACAAUCGGUCUG [Fam1A.1 aminoacylation ribozyme variant]	6.99	0.983	0.954	0.969	1.02	4.9
CACUUUGCUAAUAGUCGCAAG [Fam3.1 aminoacylation ribozyme variant]	0.947	1.41	1.32	1.01	1.38	2.22
CAGUUAGCUAAUAGUCGCAAG [Fam3.1 aminoacylation ribozyme variant]	1.67	1.21	1.17	1.32	1.04	0.96
CAGUUUGCUAAUAGGCGCAAG [Fam3.1 aminoacylation ribozyme variant]	0.95	1.21	1.14	1.27	1.35	0.744
CAGUUUGCUAAUAGUCACAAG [Fam3.1 aminoacylation ribozyme variant]	2.59	1.04	1.04	0.952	1.11	1.3
CAUCUUCAAACAAUCGGUCUG [Fam1A.1 aminoacylation ribozyme variant]	47	1.14	1.48	1.23	1.96	24.5
CCAAACUUCAAGCAAUCGGCC [Fam1B.1 aminoacylation ribozyme variant]	4.84	2.38	2.21	3.04	3.45	5.38
CCAAACUUCUAGCAAUCGGUC [Fam1B.1 aminoacylation ribozyme variant]	1.01	0.961	0.839	0.952	0.733	0.667
CCAAGCUUCAAGCAAUCGGUC [Fam1B.1 aminoacylation ribozyme variant]	86.5	1.35	1.51	1.3	2.5	44.9
CCACAAUUCAAACAAUCGGUC [Fam1B.1 aminoacylation ribozyme variant]	18.1	1.26	1.08	1.04	1.19	8.88
CCACAAUUCAAGCAAUCGAUC [Fam1B.1 aminoacylation ribozyme variant]	0.898	0.742	0.699	0.888	0.685	0.675

Sequence	self-aminoacylation (biotinyl-Phe-oxazolone)	self-aminoacylation (biotinyl-Ile-oxazolone)	self-aminoacylation (biotinyl-Met-oxazolone)	self-aminoacylation (biotinyl-Val-oxazolone)	self-aminoacylation (biotinyl-Leu-oxazolone)	self-aminoacylation (biotinyl-Trp-oxazolone)
CCACAAUUCAAGCACUCGGUC [Fam1B.1 aminoacylation ribozyme variant]	0.706	1.4	1.17	1.18	1.24	0.787
CCACAAUUCAAGCCAUCGGUC [Fam1B.1 aminoacylation ribozyme variant]	1.19	1.46	1.47	1.7	1.59	1.3
CCACAAUUCAGGCAAUCGGUC [Fam1B.1 aminoacylation ribozyme variant]	1.29	1.47	1.37	1.42	1.46	0.94
CCACACAUCAAGCAAUCGAUC [Fam1B.1 aminoacylation ribozyme variant]	0.914	0.575	0.439	0.748	0.581	0.513
CCACACAUCAAGCAAUCGGCC [Fam1B.1 aminoacylation ribozyme variant]	4.94	2.66	1.65	2.9	2.25	2.88
CCACACAUCAAGCAGUCGGUC [Fam1B.1 aminoacylation ribozyme variant]	0.847	0.93	0.686	1.05	0.799	0.457
CCACACAUCAAGCCAUCGGUC [Fam1B.1 aminoacylation ribozyme variant]	1.07	1.19	1.04	1.27	1.01	0.895
CCACACAUCAAGCUAUCGGUC [Fam1B.1 aminoacylation ribozyme variant]	0.819	0.954	0.888	1.15	0.914	0.735
CCACACAUCAGGCAAUCGGUC [Fam1B.1 aminoacylation ribozyme variant]	1.15	1.25	1.03	1.3	1.12	0.806
CCACACAUCCAGCAAUCGGUC [Fam1B.1 aminoacylation ribozyme variant]	0.873	1.2	1.05	1.08	0.983	0.847
CCACACCACAAGCAAUCGGUC [Fam1B.1 aminoacylation ribozyme variant]	0.854	1.13	0.999	1.1	0.949	0.871
CCACACCGCAAGCAAUCGGUC [Fam1B.1 aminoacylation ribozyme variant]	0.867	1.12	1.13	1.13	0.882	1.02
CCACACCUCAAGCAAUCGGUU [Fam1B.1 aminoacylation ribozyme variant]	0.882	1.43	1.14	2.1	1.98	1.57
CCACACCUCAAGCUAUCGGUC [Fam1B.1 aminoacylation ribozyme variant]	1.1	1.37	1.21	1.27	1.18	0.809
CCACACCUCAAGGAAUCGGUC [Fam1B.1 aminoacylation ribozyme variant]	0.875	1.34	1.02	1.26	1.34	1.32
CCACACCUCAUGCAAUCGGUC [Fam1B.1 aminoacylation ribozyme variant]	1.19	0.959	0.839	1.05	0.685	0.975
CCACACGUCAAGCAAACGGUC [Fam1B.1 aminoacylation ribozyme variant]	0.465	0.784	0.86	1.37	0.809	0.619
CCACACGUCAAGCAAUAGGUC [Fam1B.1 aminoacylation ribozyme variant]	1.1	0.655	0.765	0.831	0.652	0.587
CCACACGUCAAGCCAUCGGUC [Fam1B.1 aminoacylation ribozyme variant]	1.11	1.34	1.58	2.45	1.48	1.21
CCACACGUCAUGCAAUCGGUC [Fam1B.1 aminoacylation ribozyme variant]	0.974	1.18	1.26	1.34	0.972	1.61
CCACACGUCGAGCAAUCGGUC [Fam1B.1 aminoacylation ribozyme variant]	0.83	1.17	0.959	2.02	1.41	1.22
